The values that follow come from patent publication US20240150810.

For this data set, the target named is AMC-Ubiquitin, P62979.

B1: recombinant USP22 (protein)
chain: MVSRPEPEGEAMDAELAVAPPGCSHLGSFKVDNWKQNLRAIYQCFVWSGTAEARKRKAKSCICHVCGVHLNRLHSCLYCVFFGCFTKKHIHEHAKAKRHNLAIDLMYGGIYCFLCQDYIYDKDMEIIAKEEQRKAWKMQGVGEKFSTWEPTKRELELLKHNPKRRKITSNCTIGLRGLINLGNTCFMNCIVQALTHTPLLRDFFLSDRHRCEMQSPSSCLVCEMSSLFQEFYSGHRSPHIPYKLLHLVWTHARHLAGYEQQDAHEFLIAALDVLHRHCKGDDNGKKANNPNHCNCIIDQIFTGGLQSDVTCQVCHGVSTTIDPFWDISLDLPGSSTPFWPLSPGSEGNVVNGESHVSGTTTLTDCLRRFTRPEHLGSSAKIKCSGCHSYQESTKQLTMKKLPIVACFHLKRFEHSAKLRRKITTYVSFPLELDMTPFMASSKESRMNGQYQQPTDSLNNDNKYSLFAVVNHQGTLESGHYTSFIRQHKDQWFKCDDAIITKASIKDVLDSEGYLLFYHKQFLEYE
As for B1, the “fluorescence signal generated by cleavage of the fluorogenic substrate AMC-Ubiquitin (in vitro deubiquitination assay, time course)” value was “fluorescence resulting from the liberation of AMC increased over time in a USP22-dependent manner”.
